Source: US20080300206

Molecular target: recombinant wild-type human alpha-synuclein

B1: PLK3 (protein)
chain: MEPAAGFLSPRPFQRAAAAPAPPAGPGPPPSALRGPELEMLAGLPTSDPGRLITDPRSGRTYLKGRLLGKGGFARCYEATDTETGSAYAVKVIPQSRVAKPHQREKILNEIELHRDLQHRHIVRFSHHFEDADNIYIFLELCSRKSLAHIWKARHTLLEPEVRYYLRQILSGLKYLHQRGILHRDLKLGNFFITENMELKVGDFGLAARLEPPEQRKKTICGTPNYVAPEVLLRQGHGPEADVWSLGCVMYTLLCGSPPFETADLKETYRCIKQVHYTLPASLSLPARQLLAAILRASPRDRPSIDQILRHDFFTKGYTPDRLPISSCVTVPDLTPPNPARSLFAKVTKSLFGRKKKSKNHAQERDEVSGLVSGLMRTSVGHQDARPEAPAASGPAPVSLVETAPEDSSPRGTLASSGDGFEEGLTVATVVESALCALRNCIAFMPPAEQNPAPLAQPEPLVWVSKWVDYSNKFGFGYQLSSRRVAVLFNDGTHMALSANRKTVHYNPTSTKHFSFSVGAVPRALQPQLGILRYFASYMEQHLMKGGDLPSVEEVEVPAPPLLLQWVKTDQALLMLFSDGTVQVNFYGDHTKLILSGWEPLLVTFVARNRSACTYLASHLRQLGCSPDLRQRLRYALRLLRDRSPA
- Fold Change in Percent Synuclein Phosphorylation, HEK-293 overexpression: 39.6 fold
- Proportion of total synuclein that is phoshorylated at ser-129, HEK-293 overexpression, ELISA: 79.2%
- in vitro biochemical assay, phosphorylation of synuclein: PLK2 and PLK3 having extremely robust phosphorylation of synuclein

B2: CDC7 cell division cycle 7-like 1 (CDC7L1) (protein)
chain: MEASLGIQMDEPMAFSPQRDRFQAEGSLKKNEQNFKLAGVKKDIEKLYEAVPQLSNVFKIEDKIGEGTFSSVYLATAQLQVGPEEKIALKHLIPTSHPIRIAAELQCLTVAGGQDNVMGVKYCFRKNDHVVIAMPYLEHESFLDILNSLSFQEVREYMLNLFKALKRIHQFGIVHRDVKPSNFLYNRRLKKYALVDFGLAQGTHDTKIELLKFVQSEAQQERCSQNKSHIITGNKIPLSGPVPKELDQQSTTKASVKRPYTNAQIQIKQGKDGKEGSVGLSVQRSVFGERNFNIHSSISHESPAVKLMKQSKTVDVLSRKLATKKKAISTKVMNSAVMRKTASSCPASLTCDCYATDKVCSICLSRRQQVAPRAGTPGFRAPEVLTKCPNQTTAIDMWSAGVIFLSLLSGRYPFYKASDDLTALAQIMTIRGSRETIQAAKTFGKSILCSKEVPAQDLRKLCERLRGMDSSTPKLTSDIQGHASHQPAISEKTDHKASCLVQTPPGQYSGNSFKKGDSNSCEHCFDEYNTNLEGWNEVPDEAYDLLDKLLDLNPASRITAEEALLHPFFKDMSL
- in vitro kinase reaction, phosphorylation of alpha-synuclein: shown to be incapable of directly phosphorylating alpha-synuclein

B3: PLK4 (protein)
chain: MATCIGEKIEDFKVGNLLGKGSFAGVYRAESIHTGLEVAIKMIDKKAMYKAGMVQRVQNEVKIHCQLKHPSILELYNYFEDSNYVYLVLEMCHNGEMNRYLKNRVKPFSENEARHFMHQIITGMLYLHSHGILHRDLTLSNLLLTRNMNIKIADFGLATQLKMPHEKHYTLCGTPNYISPEIATRSAHGLESDVWSLGCMFYTLLIGRPPFDTDTVKNTLNKVVLADYEMPSFLSIEAKDLIHQLLRRNPADRLSLSSVLDHPFMSRNSSTKSKDLGTVEDSIDSGHATISTAITASSSTSISGSLFDKRRLLIGQPLPNKMTVFPKNKSSTDFSSSGDGNSFYTQWGNQETSNSGRGRVIQDAEERPHSRYLRRAYSSDRSGTSNSQSQAKTYTMERCHSAEMLSVSKRSGGGENEERYSPTDNNANIFNFFKEKTSSSSGSFERPDNNQALSNHLCPGKTPFPFADPTPQTETVQQWFGNLQINAHLRKTTEYDSISPNRDFQGHPDLQKDTSKNAWTDTKVKKNSDASDNAHSVKQQNTMKYMTALHSKPEIIQQECVFGSDPLSEQSKTRGMEPPWGYQNRTLRSITSPLVAHRLKPIRQKTKKAVVSILDSEEVCVELVKEYASQEYVKEVLQISSDGNTITIYYPNGGRGFPLADRPPSPTDNISRYSFDNLPEKYWRKYQYASRFVQLVRSKSPKITYFTRYAKCILMENSPGADFEVWFYDGVKIHKTEDFIQVIEKTGKSYTLKSESEVNSLKEEIKMYMDHANEGHRICLALESIISEEERKTRSAPFFPIIIGRKPGSTSSPKALSPPPSVDSNYPTRERASFNRMVMHSAASPTQAPILNPSMVTNEGLGLTTTASGTDISSNSLKDCLPKSAQLLKSVFVKNVGWATQLTSGAVWVQFNDGSQLVVQAGVSSISYTSPNGQTTRYGENEKLPDYIKQKLQCLSSILLMFSNPTPNFH
- Fold Change in Percent Synuclein Phosphorylation, HEK-293 overexpression: 1 fold
- Proportion of total synuclein that is phoshorylated at ser-129, HEK-293 overexpression, ELISA: 1.9%
- in vitro biochemical assay, phosphorylation of synuclein: PLK4 exhibiting no ability to phosphorylate synuclein

B4: GRK7 (protein)
chain: MVDMGALDNLIANTAYLQARKPSDCDSKELQRRRRSLALPGLQGCAELRQKLSLNFHSLCEQQPIGRRLFRDFLATVPTFRKAATFLEDVQNWELAEEGPTKDSALQGLVATCASAPAPGNPQPFLSQAVATKCQAATTEEERVAAVTLAKAEAMAFLQEQPFKDFVTSAFYDKFLQWKLFEMQPVSDKYFTEFRVLGKGGFGEVCAVQVKNTGKMYACKKLDKKRLKKKGGEKMALLEKEILEKVSSPFIVSLAYAFESKTHLCLVMSLMNGGDLKFHIYNVGTRGLDMSRVIFYSAQIACGMLHLHELGIVYRDMKPENVLLDDLGNCRLSDLGLAVEMKGGKPITQRAGTNGYMAPEILMEKVSYSYPVDWFAMGCSIYEMVAGRTPFKDYKEKVSKEDLKQRTLQDEVKFQHDNFTEEAKDICRLFLAKKPEQRLGSREKSDDPRKHHFFKTINFPRLEAGLIEPPFVPDPSVVYAKDIAEIDDFSEVRGVEFDDKDKQFFKNFATGAVPIAWQEEIIETGLFEELNDPNRPTGCEEGNSSKSGVCLLL
- S129 phosphorylation, immunoblot (11A5): Prominent signals came from all GRKs except for GRK7
- in vitro kinase reaction, phosphorylation of alpha-synuclein at serine 129: capable of phosphorylating alpha-synuclein specifically at serine 129 and did not phosphorylate serine 87 in vitro
- phosphorylation of AS in vitro: GRK 7 was not able to phosphorylate at appreciable levels

B5: MET (protein)
chain: KKRKQIKDLGSELVRYDARVHTPHLDRLVSARSVSPTTEMVSNESVDYRATFPEDQFPNSSQNGSCRQVQYPLTDMSPILTSGDSDISSPLLQNTVHIDLSALNPELVQAVQHVVIGPSSLIVHFNEVIGRGHFGCVYHGTLLDNDGKKIHCAVKSLNRITDIGEVSQFLTEGIIMKDFSHPNVLSLLGICLRSEGSPLVVLPYMKHGDLRNFIRNETHNPTVKDLIGFGLQVAKGMKYLASKKFVHRDLAARNCMLDEKFTVKVADFGLARDMYDKEYYSVHNKTGAKLPVKWMALESLQTQKFTTKSDVWSFGVLLWELMTRGAPPYPDVNTFDITVYLLQGRRLLQPEYCPDPLYEVMLKCWHPKAEMRPSFSELVSRISAIFSTFIGEHYVHVNATYVNVKCVAPYPSLLSSEDNADDEVDTRPASFWETS
- in vitro kinase reaction, phosphorylation of alpha-synuclein: shown to be incapable of directly phosphorylating alpha-synuclein

B6: GRK2 (protein)
chain: MADLEAVLADVSYLMAMEKSKATPAARASKKILLPEPSIRSVMQKYLEDRGEVTFEKIFSQKLGYLLFRDFCLNHLEEARPLVEFYEEIKKYEKLETEEERVARSREIFDSYIMKELLACSHPFSKSATEHVQGHLGKKQVPPDLFQPYIEEICQNLRGDVFQKFIESDKFTRFCQWKNVELNIHLTMNDFSVHRIIGRGGFGEVYGCRKADTGKMYAMKCLDKKRIKMKQGETLALNERIMLSLVSTGDCPFIVCMSYAFHTPDKLSFILDLMNGGDLHYHLSQHGVFSEADMRFYAAEIILGLEHMHNRFVVYRDLKPANILLDEHGHVRISDLGLACDFSKKKPHASVGTHGYMAPEVLQKGVAYDSSADWFSLGCMLFKLLRGHSPFRQHKTKDKHEIDRMTLTMAVELPDSFSPELRSLLEGLLQRDVNRRLGCLGRGAQEVKESPFFRSLDWQMVFLQKYPPPLIPPRGEVNAADAFDIGSFDEEDTKGIKLLDSDQELYRNFPLTISERWQQEVAETVFDTINAETDRLEARKKAKNKQLGHEEDYALGKDCIMHGYMSKMGNPFLTQWQRRYFYLFPNRLEWRGEGEAPQSLLTMEEIQSVEETQIKERKCLLLKIRGGKQFILQCDSDPELVQWKKELRDAYREAQQLVQRVPKMKNKPRSPVVELSKVPLVQRGSANGL
- S129 phosphorylation, immunoblot (11A5), rank of signal: CKI>GRK6>PLK2>GRK4>GRK5>GRK2
- in vitro kinase reaction, phosphorylation of alpha-synuclein at serine 129: capable of phosphorylating alpha-synuclein specifically at serine 129 and did not phosphorylate serine 87 in vitro

B7: GRK4 (protein)
chain: MELENIVANSLLLKARQGGYGKKSGRSKKWKEILTLPPVSQCSELRHSIEKDYSSLCDKQPIGRRLFRQFCDTKPTLKRHIEFLDAVAEYEVADDEDRSDCGLSILDRFFNDKLAAPLPEIPPDVVTECRLGLKEENPSKKAFEECTRVAHNYLRGEPFEEYQESSYFSQFLQWKWLERQPVTKNTFRHYRVLGKGGFGEVCACQVRATGKMYACKKLQKKRIKKRKGEAMALNEKRILEKVQSRFVVSLAYAYETKDALCLVLTIMNGGDLKFHIYNLGNPGFDEQRAVFYAAELCCGLEDLQRERIVYRDLKPENILLDDRGHIRISDLGLATEIPEGQRVRGRVGTVGYMAPEVVNNEKYTFSPDWWGLGCLIYEMIQGHSPFKKYKEKVKWEEVDQRIKNDTEEYSEKFSEDAKSICRMLLTKNPSKRLGCRGEGAAGVKQHPVFKDINFRRLEANMLEPPFCPDPHAVYCKDVLDIEQFSVVKGIYLDTADEDFYARFATGCVSIPWQNEMIESGCFKDINKSESEEALPLDLDKNIHTPVSRPNRGFFYRLFRRGGCLTMVPSEKEVEPKQC
- S129 phosphorylation, immunoblot (11A5), rank of signal: CKI>GRK6>PLK2>GRK4>GRK5>GRK2

B8: G protein-coupled receptor kinase 6 (GRK6) (protein)
chain: MELENIVANTVLLKAREGGGGNRKGKSKKWRQMLQFPHISQCEELRLSLERDYHSLCERQPIGRLLFREFCATRPELSRCVAFLDGVAEYEVTPDDKRKACGRQLTQNFLSHTGPDLIPEVPRQLVTNCTQRLEQGPCKDLFQELTRLTHEYLSVAPFADYLDSIYFNRFLQWKWLERQPVTKNTFRQYRVLGKGGFGEVCACQVRATGKMYACKKLEKKRIKKRKGEAMALNEKQILEKVNSRFVVSLAYAYETKDALCLVLTLMNGGDLKFHIYHMGQAGFPEARAVFYAAEICCGLEDLHRERIVYRDLKPENILLDDHGHIRISDLGLAVHVPEGQTIKGRVGTVGYMAPEVVKNERYTFSPDWWALGCLLYEMIAGQSPFQQRKKKIKREEVERLVKEVPEEYSERFSPQARSLCSQLLCKDPAERLGCRGGSAREVKEHPLFKKLNFKRLGAGMLEPPFKPDPQAIYCKDVLDIEQFSTVKGVELEPTDQDFYQKFATGSVPIPWQNEMVETECFQELNVFGLDGSVPPDLDWKGQPPAPPKKGLLQRLFSRQDCCGNCSDSEEELPTRL
- S129 phosphorylation in vitro, normalised by activity units: The most prominent result came from GRK6
- S129 phosphorylation, immunoblot (11A5), kinase:AS 1:200 molar: Prominent signals came from GRK6, CKI, CKII and PLK2
- S129 phosphorylation, immunoblot (11A5), rank of signal: CKI>GRK6>PLK2>GRK4>GRK5>GRK2
- in vitro kinase reaction, phosphorylation of alpha-synuclein at serine 129: capable of phosphorylating alpha-synuclein specifically at serine 129 and did not phosphorylate serine 87 in vitro
- phospho ser-129 level in vitro, normalised for molarity: roughly equivalent levels of phospho ser-129 between CKI, GRK6 and PLK2
